The values that follow come from US7193044B1, “Compounds and methods for regulating apoptosis, and methods of making and screening for compounds that regulate apoptosis” (Immunogen, Inc., priority 2000, dated 2007).

Test [1] addresses T1, PKA (catalytic subunit from bovine heart) (Bos taurus, UniProt P00517).
T1 construct: 11 units PKA (catalytic subunit from bovine heart, Calbiochem); purchased Calbiochem; host or cells: bovine heart
Kind of test: In vitro kinase assay, phosphorylation of BAD and BAD mutants by PKA. The note with it: 35S-labeled in vitro translated protein. In kind it is biochemical. The method, then:
The ability of full-length BAD and mutant BAD S155A to bind Bcl-XL was also determined (FIG. 3(c)). Full-length BAD (“WT”) and mutant BAD S155A (“S155A”) were produced by in vitro translation and labeled with ^35S-methionine therein. The labeled proteins were then incubated with PKA (“+”) in the presence of unlabeled ATP or a buffer control (“−”). Following the kinase reactions, aliquots of each sample of the four samples were incubated with either GST or GST-Bcl-XL. The protein complex were captured on glutathione-agarose beads. Proteins bound to the beads (“Bound”) (lower panel) and samples of the reactions collected prior to incubation with the beads (“Total”) (upper panel) were analyzed by SDS-PAGE followed by autoradiography.
The GST-tagged BAD and BAD mutants were then expressed individually in cells and the purified GST-tagged polypeptides incubated with purified PKA, in the presence of ^32P radiolabel. A western blot, probed with anti-BAD antibody, was performed on the incubated GST-tagged BAD and BAD mutants to determine whether PKA could phosphorylate the BAD and/or mutant BAD in vitro. The GST-tagged BAD and BAD mutants phosphorylated by PKA could be detected directly by autoradiography due to the incorporation of ^32P radiolabel when the polypeptides were phosphorylated (FIG. 4, upper panel), whereas the total amount of BAD and mutant BAD present in the in vitro reaction was detected by the anti-BAD antibody probe (FIG. 4, lower panel).
In vitro kinase assays were carried out in 30 μl volumes containing 10 mM HEPES buffer, pH 7.5, 100 mM NaCl, 12 mM MgCl2, 1 mM dithiothreitol, […] γ^32P-ATP ([…], NEN), 11 units PKA (catalytic subunit from bovine heart, Calbiochem), and 1 μg purified GST-BAD. Reactions were incubated for 30 min at 30° C. and terminated by the addition of SDS-PAGE sample buffer. Samples were run on a 4–20% SDS-PAGE gel (Novex), transferred to a nitrocellulose membrane and phosphorylated GST-BAD was visualized by autoradiography. To verify that equal amounts of GST-BAD substrates were used, the nitrocellulose was subjected to western blot analysis with 133 ng/ml anti-BAD antibody (C-20).

Test [2] relates to HeLa cells. Kind of test: Beta-gal ELISA apoptosis assay in transfected HeLa cells. In kind it is cell-based, human. The note with it: in the presence of Forskolin after 24 hours. The method, then:
Because BAD Ser155 phosphorylation, like Ser136 phosphorylation, prevents BAD from binding to Bcl-XL (FIG. 1), it was possible that by analogy, Ser155 dephosphorylation promotes cell death. To test this idea, HeLa cells were co-transfected with BAD or various BAD serine mutants and a β-gal reporter plasmid. Twenty-four hours post-transfection, cell viability was analyzed by β-gal ELISA.
To test this idea, HeLa cells were again co-transfected with BAD or various BAD serine mutants and a β-gal reporter plasmid. Forskolin was then added to half of the cultures while the other half was left untreated. Beta-gal ELISAs were performed 24 hours post transfection. […] Thus, phosphorylation of Ser155 rescues cells from BAD-induced apoptosis, while substitution of Ser155 with a nonphosphorylatable residue results in increased cell death and the failure of cells to be protected from induced PKA activity.
Beta-gal ELISA assays were performed using the β-gal ELISA system from Boehringer Mannheim, according to manufacture's instructions. Cells were transfected with BAD (or BAD mutant) and β-gal in a ratio of 5:1. The transfected cells were trypsinized and distributed into 96-well tissue culture plates. Twenty-four hours after transfection, cell extracts were obtained by lysing the cells in lysis buffer. Cell extracts (200 μl) were then added to anti-β-gal-coated microtiter plates (MTP). The MTPs were foil-covered and incubated for one hour at 37° C. Solutions were then decanted and the MTPs were washed, followed by the addition of 200 μl of anti-β-gal-DIG working solution, and incubation for an additional hour as described above. Solutions were again decanted, the MTPs washed and 200 μl of DIG-POD working solution were added. The MTPs were incubated for another hour at 37° C., the solution decanted, and the wells washed. 200 μl of substrate with enhancer were added to each well and incubated at room temperature until color development. The β-gal activity was measured by the absorbance of the sample at […]. Data were based on triplicate wells with standard deviations calculated.

Test [3] deals with BAD Ser155 phosphorylation in HeLa cells. Description: BAD phosphorylation in HeLa cells (western blot band-shift / anti-phospho-Ser155 antibody). Conditions: HeLa cells. In kind it is cell-based, human. As to the method: A mammalian expression vector encoding mutant HA-BAD S155A, derived from the shorter murine BAD of SEQ ID NO:3, was constructed. HA-BAD S155A has an amino acid sequence wherein the serine at a position corresponding to Ser155 is substituted with alanine. A western blot was performed on WCL prepared from cells expressing the shorter murine BAD (SEQ ID NO:3), HA-BAD S112A, HA-BAD S136A, or HA-BAD S155A, and probed with anti-HA antibody.
A western blot analysis, probed with anti-HA antibody, was performed on lysates produced from the Forskolin treated and untreated (control) cells to determine whether Forskolin could induce the phosphorylation BAD or mutant BAD.
HeLa cells transiently expressing HA-BAD, HA-BAD S155A, HA-BAD S112A/S136A, or HA-BAD S112A/S136A/S155A were treated with Forskolin or a buffer control.
The HA-BAD S112A/S136A double mutant was transiently expressed in HeLa cells, and transfected cell cultures were treated with each of the GPCR ligands, individually and as a group. A western blot analysis, probed with anti-HA antibody, was performed on lysates produced from the treated and untreated (negative control) cells. […] Forskolin (FK) and no treatment (−) were positive and negative controls, respectively (FIG. 6(a), […], respectively).
Non-transfected HeLa cells were treated with Forskolin or L-epinephrine, followed by western blot analysis of cell lysates using anti-BAD antibodies.
Transformants were treated with L-epinephrine, then lysed and subjected to anti-HA western blot analysis.
To further test whether phosphorylation of Ser155 is dependent on the PI 3-kinase/Akt pathway, HeLa cells were transfected with the mutant HA-BAD S155A and pretreated with Wortmannin, an inhibitor of PI 3-kinase. These cells were then stimulated with epidermal growth factor (EGF), lysed and analyzed by western blot analysis.
For immunoprecipitation of all HA-BAD species, 1 μg of the anti-HA antibody was added to the cell lysates, and incubated at 4° C. for one hour. Protein G agarose (Pierce) was then added (50 μl/fraction of 50% slurry) and followed by a one hour incubation at 4° C. Beads were washed with RIPA buffer, boiled in loading buffer (2% SDS, 10% glycerol, 5% β-ME, 60 mM Tris, pH 6.8, 0.002% Bromophenol Blue) and loaded onto polyacrylamide gels. After electrophoresis, proteins were transferred to nitrocellulose membranes, and blots blocked in western wash buffer (40 mM Tris, pH 8.0, 150 mM NaCl, 0.2% NP-40) with 5% BSA for one hour at room temperature. Blots were incubated with primary antibody diluted in western wash buffer with 3% BSA at room temperature for 1–2 hours, washed with western wash buffer and incubated with secondary HRP-coupled antibody diluted in western wash buffer with 1.5% BSA, and washed extensively. Polypeptides were detected with the ECL chemiluminescence according to the manufacturers instructions (Amersham).

The target in test [4] is GST-Bcl-XL (Homo sapiens, UniProt Q07817). Description: GST-Bcl-XL binding (glutathione bead pull-down) of BAD. The note with it: 35S-labeled in vitro translated full-length protein incubated with PKA and ATP. The method, then: In order to test whether the additional and novel phosphorylation site on BAD has functional significance, the effect on BAD binding to Bcl-XL was examined. Recombinant Bcl-XL tagged with the glutathione S-transferase (“GST”) moiety (“GST-Bcl-XL”) was incubated with WCL prepared from COS-7 cells expressing the double mutant HA-BAD S112A/S136A, and the HA-BAD S112A/S136A that bound to the GST-Bcl-XL was precipitated with GST beads. […] No HA-BAD S112A/S136A was precipitated with GST beads from the WCL that were not incubated with GST-Bcl-XL (FIG. 1, lane 4).
Chain of GST-Bcl-XL (Q07817 whole entry): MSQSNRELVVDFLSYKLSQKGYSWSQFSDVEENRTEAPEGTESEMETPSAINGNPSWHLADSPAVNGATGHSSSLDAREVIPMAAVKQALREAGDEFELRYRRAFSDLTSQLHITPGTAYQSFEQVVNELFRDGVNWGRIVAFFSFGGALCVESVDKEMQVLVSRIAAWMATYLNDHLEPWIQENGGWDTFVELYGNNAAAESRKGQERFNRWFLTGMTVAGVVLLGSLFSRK
The ability of full-length BAD and mutant BAD S155A to bind Bcl-XL was also determined (FIG. 3(c)). Full-length BAD (“WT”) and mutant BAD S155A (“S155A”) were produced by in vitro translation and labeled with ^35S-methionine therein. […] Proteins bound to the beads (“Bound”) (lower panel) and samples of the reactions collected prior to incubation with the beads (“Total”) (upper panel) were analyzed by SDS-PAGE followed by autoradiography.
For Bcl-XL binding studies, GST-Bcl-XL (1 mg/ml final concentration) was added to cell lysates derived from BAD expressing cells, and incubated with rotation for two hours at 4° C. […] The beads were then washed with RIPA buffer, the proteins were separated by SDS-PAGE and associated BAD detected by probing the blot with anti-HA antibody.

B1: wild-type BAD: shorter murine BAD of SEQ ID NO:3 (162 aa), used untagged, HA-tagged or GST-tagged (protein, listed as Mus musculus)
chain: MFQIPEFEPSEQEDASATDRGLGPSLTEDQPGPYLAPGLLGSNIHQQGRAATNSHHGGAGAMETRSRHSSYPAGTEEDEGMEEELSPFRGRSRSAPPNLWAAQRYGRELRRMSDEFEGSFKGLPRPKSAGTATQMRQSAGWTRIIQSWWDRNLGKGGSTPSQ
modifications: optional HA or GST tag
With B1, the “gel-mobility shift induced by phosphorylation by PKA” value in test [1] was “induced a gel-mobility shift”. Also, in test [2], the “more cells surviving transient expression than with the BAD S155A mutant” value is recorded as “Approximately 50%”. For the same molecule, the “band-shift (phosphorylation) of expressed BAD construct in response to L-epinephrine” value in test [3] was “significant band-shift”. Also, the “binding to GST-Bcl-XL after phosphorylation by PKA” value in test [4] was “blocked the ability of BAD to bind to Bcl-XL”.
